We go through one substance from article PMC7347537.

By stoichiometry N is commonly meant the number of molecules, sites or subunits per partner or assembly.

The target of the assay is full-length IRG1 from Bacillus subtilis (immune-responsive gene 1, cis-aconitate decarboxylase) (Bacillus subtilis). The assay can be described thus: SEC-MALS; Superdex 200 10/300, 20 mM Tris-HCl (pH 8.0), 150 mM NaCl, 0.4 mL/min, room temperature; DAWN-treos MALS detector. (In general: In gel filtration, larger molecules generally elute earlier.)

For “full-length IRG1 from Bacillus subtilis (immune-responsive gene 1, cis-aconitate decarboxylase) (enzyme)”, the stoichiometry N is 2.
